Residues, ends and D or L forms follow the SMILES beside them. No end group written: not given here. *: point of attachment. NH(β-GlcNAc) = CC(=O)N[C@@H]1[C@@H](O)[C@H](O)[C@@H](CO)O[C@H]1N*; acetylglucosamine = N-acetylglucosamine
Molecular target: yeast alpha-glucosidase (Saccharomyces cerevisiae, UniProt P53341)
Type: biochemical
Protocol: The enzyme of alpha-glucosidase activity is according to the procedure as described by Sigma Chemical Company, St. Louis, Mo. Routinely, the enzyme reaction mixture contains 10 mM maltose and 50 ul of purified alpha-glucosidase or 0.02 units of yeast alpha-glucosidase in a final volume of 60 ul of 25 mM sodium acetate buffer, pH 5.6. The reaction mixture is incubated at 37° C. for 60 minutes, and the production of glucose is determined by the glucose oxidase reagent (Worthington Statzyme Glucose 500) in accordance with recommendation of Worthington Biochemical Corporation.

Chain of yeast alpha-glucosidase (P53341 whole entry): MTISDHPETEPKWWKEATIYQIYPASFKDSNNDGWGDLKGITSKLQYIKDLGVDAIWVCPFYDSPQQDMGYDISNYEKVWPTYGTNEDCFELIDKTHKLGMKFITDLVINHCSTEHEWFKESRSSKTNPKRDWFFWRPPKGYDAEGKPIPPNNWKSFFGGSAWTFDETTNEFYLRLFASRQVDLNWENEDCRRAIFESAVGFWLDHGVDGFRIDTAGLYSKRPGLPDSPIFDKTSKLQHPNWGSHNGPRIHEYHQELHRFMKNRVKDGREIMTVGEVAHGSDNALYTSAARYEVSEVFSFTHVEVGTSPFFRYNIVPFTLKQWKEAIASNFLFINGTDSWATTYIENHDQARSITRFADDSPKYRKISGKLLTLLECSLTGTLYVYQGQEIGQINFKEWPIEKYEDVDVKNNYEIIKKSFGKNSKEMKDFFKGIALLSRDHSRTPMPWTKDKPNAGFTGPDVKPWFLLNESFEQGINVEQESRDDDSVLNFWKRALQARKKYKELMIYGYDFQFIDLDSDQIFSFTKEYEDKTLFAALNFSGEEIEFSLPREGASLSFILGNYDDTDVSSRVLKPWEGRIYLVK

glycopeptide: bioactive fragment from Lys-C digestion of CON-1: glycine-glycine-asparagine-lysine, asparagine glycosylated by acetylglucosamine (GGN(acetylglucosamine)K)
inhibition of alpha-glucosidase lost after N-acetylglucosaminidase treatment (compared to the nontreated glycopeptide): about 20%
change of inhibitory activity after removal of acetylglucosamine (in words) (incubation with N-acetylglucosaminidase): marked reduction in inhibitory activity

CC(=O)N[C@@H]1[C@@H](O)[C@H](O)[C@@H](CO)O[C@H]1NC(=O)C[C@H](NC(=O)CNC(=O)CN)C(=O)N[C@@H](CCCCN)C(=O)O [synthetic glycopeptide, Gylcyl-glycl-(NB-2-(acetylamino)-deoxy-2-B-pyranosyl)-asparaginyl-lysine] (H-GGD(NH(β-GlcNAc))K-OH)
inhibitory effect on the alpha-glucosidase activity (10 ug of peptide, 50 mM acetate buffer pH 5.6, compared to control): about 90%

acetoacetate glycopeptide complex: reaction product of the putative glycopeptide with acetoacetate reagent (GGN(acetylglucosamine)K; also: reacted with acetoacetate reagent (glycine residue))
inhibitory effect on alpha-glucosidase activity (in words) (0.02 units of yeast alpha-glucosidase): loss of inhibitory effect of the glycopeptide itself but is able to stimulate the alpha-glucosidase activity

glycine-glycine-asparagine-pyridoxyl-lysine acetylglucosamine
increase in inhibitory effect on alpha-glucosidase (glycopeptide preincubated with pyridoxal 5-phosphate versus unmodified glycopeptide): 50%

From patent publication US5981720A, “Human salivary proteins and fragments thereof having alpha-glucosidase inhibitory activity” (priority 1997, dated 1999)
